Source: US20240254239A1 (LAEKNA THERAPEUTICS SHANGHAI, published 2024)
One block for each binder: values may come before it.

Experiments:
Human PDGFRb ECD [1] = molecular target: T1, Human PDGFRb ECD (human, UniProt P09619 33-532); assay: ELISA on human PDGFRb ECD, luminescence
T1 construct: extracellular domain; also called recombinant extracellular domain of PDGFRb

human MICA ECD = molecular target: T2, human MICA ECD (human, UniProt Q29983 24-307); assay: ELISA on human MICA ECD, luminescence
T2 construct: extracellular domain
T2 sequence (looked up): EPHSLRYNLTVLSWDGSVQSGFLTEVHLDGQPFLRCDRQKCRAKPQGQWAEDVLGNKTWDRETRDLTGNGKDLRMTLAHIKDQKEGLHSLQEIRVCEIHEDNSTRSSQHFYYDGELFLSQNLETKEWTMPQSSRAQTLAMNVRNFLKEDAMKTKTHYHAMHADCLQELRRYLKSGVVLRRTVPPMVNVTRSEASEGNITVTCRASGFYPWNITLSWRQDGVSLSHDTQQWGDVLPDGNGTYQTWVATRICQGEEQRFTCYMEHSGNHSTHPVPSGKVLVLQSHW

Human PDGFRb ECD [2] = molecular target: T1, Human PDGFRb ECD; assay: direct ELISA on coated recombinant ECD (30 ng/well), HRP-conjugated secondary antibody, luminescence
Protocol: (§1) Briefly, recombinant extracellular domain of PDGFRb, FAPα, ULBP1, uPAR, IGF1R, SIRPA, PD-L1, ANTXR1, CD248, or GPC3 (30 ng/well) was coated on white optiplate™-384 well HB plate. After overnight coating, standard direct ELISA assay was performed. Luminescence signal was detected after using secondary antibody with HRP conjugated. Binding activity of each antibody was determined based on dose dependent binding curve.

human GPC3 ECD = molecular target: T3, human GPC3 ECD (human, UniProt P51654 25-559, limits assumed); assay: as above
T3 construct: extracellular domain; also called recombinant extracellular domain of GPC3
Protocol: as §1

T1 sequence (P09619 33-532): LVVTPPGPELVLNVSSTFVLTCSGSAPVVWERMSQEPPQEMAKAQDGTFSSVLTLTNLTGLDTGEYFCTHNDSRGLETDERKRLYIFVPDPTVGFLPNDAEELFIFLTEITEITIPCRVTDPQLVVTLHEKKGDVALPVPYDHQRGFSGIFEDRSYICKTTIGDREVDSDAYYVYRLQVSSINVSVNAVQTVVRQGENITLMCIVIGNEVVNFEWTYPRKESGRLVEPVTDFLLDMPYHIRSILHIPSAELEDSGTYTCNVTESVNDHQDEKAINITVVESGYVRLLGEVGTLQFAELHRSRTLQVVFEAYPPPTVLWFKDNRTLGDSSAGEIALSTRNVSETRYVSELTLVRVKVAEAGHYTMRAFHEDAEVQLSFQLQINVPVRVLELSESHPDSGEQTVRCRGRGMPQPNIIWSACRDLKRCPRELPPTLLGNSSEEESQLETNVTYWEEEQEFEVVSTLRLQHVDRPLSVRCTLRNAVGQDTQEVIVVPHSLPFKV
T3 sequence (P51654 25-559 limits assumed): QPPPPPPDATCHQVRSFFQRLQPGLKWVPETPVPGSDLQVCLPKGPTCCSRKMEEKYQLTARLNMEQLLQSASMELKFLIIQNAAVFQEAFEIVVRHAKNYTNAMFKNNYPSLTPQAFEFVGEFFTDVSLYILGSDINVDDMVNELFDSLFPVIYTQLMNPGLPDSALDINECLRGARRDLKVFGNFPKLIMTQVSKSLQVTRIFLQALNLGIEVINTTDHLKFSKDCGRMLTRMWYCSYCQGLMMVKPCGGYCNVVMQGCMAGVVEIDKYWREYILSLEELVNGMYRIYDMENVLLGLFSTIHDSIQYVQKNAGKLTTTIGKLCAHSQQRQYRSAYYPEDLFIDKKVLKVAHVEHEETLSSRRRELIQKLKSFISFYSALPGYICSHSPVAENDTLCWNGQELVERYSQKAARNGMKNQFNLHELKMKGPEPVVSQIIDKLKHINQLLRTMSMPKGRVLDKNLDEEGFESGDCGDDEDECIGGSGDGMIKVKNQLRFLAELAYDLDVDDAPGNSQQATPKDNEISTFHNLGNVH

EC50 (read off the curve) (Human PDGFRb ECD [1]): ~0.02 µg/mL
binding result (human MICA ECD): binds
B1: α-PDGFRb 1-NKG2D KIH S239D/1332E (bispecific antibody, human IgG1, kappa)
heavy: QVQLQESGPGLVKPSETLSLTCTVSGFSLTNYAINWVRQPPGKGLEWLGIIWTGGGTSYNSALKSRLTISKDTSKNQVSLKLSSVTAADTAVYYCARTGTRGYFFDYWGQGTLVTVSSASTKGPSVFPLAPSSKSTSGGTAALGCLVKDYFPEPVTVSWNSGALTSGVHTFPAVLQSSGLYSLSSVVTVPSSSLGTQTYICNVNHKPSNTKVDKKVEPKSCDKTHTCPPCPAPELLGGPDVFLFPPKPKDTLMISRTPEVTCVVVDVSHEDPEVKFNWYVDGVEVHNAKTKPREEQYNSTYRVVSVLTVLHQDWLNGKEYKCKVSNKALPAPEEKTISKAKGQPREPQVCTLPPSREEMTKNQVSLSCAVKGFYPSDIAVEWESNGQPENNYKTTPPVLDSDGSFFLVSKLTVDKSRWQQGNVFSCSVMHEALHNHYTQKSLSLSPGK
chain: FLNSLFNQEVQIPLTESYCGPCPKNWICYKNNCYQFFDESKNWYESQASCMSQNASLLKVYSKEDQDLLKLVKSYHWMGLVHIPTNGSWQWEDGSILSPNLLTIIEMQKGDCALYASSFKGYIENCSTPNTYICMQRTVGGSGGGSGFLNSLFNQEVQIPLTESYCGPCPKNWICYKNNCYQFFDESKNWYESQASCMSQNASLLKVYSKEDQDLLKLVKSYHWMGLVHIPTNGSWQWEDGSILSPNLLTIIEMQKGDCALYASSFKGYIENCSTPNTYICMQRTVGGGGSGGGGSGGGGSGGGGSPKSSDKTHTCPPCPAPELLGGPDVFLFPPKPKDTLMISRTPEVTCVVVDVSHEDPEVKFNWYVDGVEVHNAKTKPREEQYNSTYRVVSVLTVLHQDWLNGKEYKCKVSNKALPAPEEKTISKAKGQPREPQVYTLPPCRDELTKNQVSLWCLVKGFYPSDIAVEWESNGQPENNYKTTPPVLDSDGSFFLYSKLTVDKSRWQQGNVFSCSVMHEALHNHYTQKSLSLSPGK
light: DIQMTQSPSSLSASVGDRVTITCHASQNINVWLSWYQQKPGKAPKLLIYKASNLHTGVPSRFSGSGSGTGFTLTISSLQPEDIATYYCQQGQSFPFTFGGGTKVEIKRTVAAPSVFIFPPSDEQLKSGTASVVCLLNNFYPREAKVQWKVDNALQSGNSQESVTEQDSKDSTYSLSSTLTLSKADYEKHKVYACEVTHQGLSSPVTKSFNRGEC
notes: The Fc carries S239D/I332E; also called α-PDGFRb 1-NKG2D KIH S239D/I332E; knob-into-hole bispecific antibody

EC50 (read off the curve) (Human PDGFRb ECD [1]): ~0.02 µg/mL
EC50 (read off the curve) (Human PDGFRb ECD [2]): ~0.03 µg/mL
B2: α-PDGFRb 1 S239D/1332E (antibody, human IgG1, kappa, V domains shown)
VH: QVQLQESGPGLVKPSETLSLTCTVSGFSLTNYAINWVRQPPGKGLEWLGIIWTGGGTSYNSALKSRLTISKDTSKNQVSLKLSSVTAADTAVYYCARTGTRGYFFDYWGQGTLVTVSS
VL: DIQMTQSPSSLSASVGDRVTITCHASQNINVWLSWYQQKPGKAPKLLIYKASNLHTGVPSRFSGSGSGTGFTLTISSLQPEDIATYYCQQGQSFPFTFGGGTKVEIKR
notes: also called α-PDGFRb 1 S239D/I332E; exemplary anti-PDGFRb antibody (α-PDGFRb 1)

EC50 (read off the curve) (human GPC3 ECD): ~0.02 µg/mL
B3: α-GPC3 1 mIgG2a S239D/1332E (antibody, V domains shown)
VH: QVQLQQSGAELVRPGASVKLSCKASGYTFTDYEMHWVKQTPVHGLKWIGALDPKTGDTAYSQKFKGKATLTADKSSSTAYMELRSLTSEDSAVYYCTRFYSYTYWGQGTLVTVSA
VL: DVVMTQTPLSLPVSLGDQASISCRSSQSLVHSNGNTYLHWYLQKPGQSPKLLIYKVSNRFSGVPDRFSGSGSGTDFTLKISRVEAEDLGVYFCSQNTHVPPTFGSGTKLEIKR
notes: mIgG2a with S239D/I332E; also called α-GPC3 1 mIgG2a S239D/I332E; exemplary anti-GPC3 antibody (α-GPC3 1)
